The target in assay [1] is T1, recombinant soluble human Seprase (rhuSeprase) (human, UniProt Q12884 29-760).
T1 construct: range 29-760; Secreted from CHO-S cells with a mouse Ig kappa secretion signal (not part of the protein in the assay); also called recombinant human Seprase; soluble fraction of human Seprase
T1 sequence: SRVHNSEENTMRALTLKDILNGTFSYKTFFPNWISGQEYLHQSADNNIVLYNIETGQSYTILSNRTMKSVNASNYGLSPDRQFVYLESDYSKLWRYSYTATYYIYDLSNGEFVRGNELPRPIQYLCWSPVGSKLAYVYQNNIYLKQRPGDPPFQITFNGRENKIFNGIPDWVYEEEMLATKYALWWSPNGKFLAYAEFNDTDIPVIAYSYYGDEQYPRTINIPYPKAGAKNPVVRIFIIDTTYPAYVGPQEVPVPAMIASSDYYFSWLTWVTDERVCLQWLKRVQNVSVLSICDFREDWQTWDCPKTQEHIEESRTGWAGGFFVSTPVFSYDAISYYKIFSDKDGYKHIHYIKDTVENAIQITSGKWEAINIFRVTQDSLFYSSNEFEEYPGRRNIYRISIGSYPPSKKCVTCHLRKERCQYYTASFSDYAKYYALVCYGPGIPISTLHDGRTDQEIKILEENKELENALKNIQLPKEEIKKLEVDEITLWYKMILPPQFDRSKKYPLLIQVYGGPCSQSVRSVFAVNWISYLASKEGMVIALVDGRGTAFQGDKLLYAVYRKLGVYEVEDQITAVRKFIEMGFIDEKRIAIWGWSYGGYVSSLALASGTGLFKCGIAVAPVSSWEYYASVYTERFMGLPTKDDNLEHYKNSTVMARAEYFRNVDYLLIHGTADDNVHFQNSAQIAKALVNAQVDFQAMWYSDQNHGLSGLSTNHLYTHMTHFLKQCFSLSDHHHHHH
In words: SPR (Biacore T100), rhuSeprase immobilised, MC-FA-010 at 37, 111,11, 333,33, 1000 and 3000 nM, global fit; Rmax 316,6 RU; Chi² 9,42 RU²; U-value 1. As to the method:
(§1) To obtain insights of the kinetic binding properties surface plasmon resonance (SPR) analysis was performed on a Biacore T100 device (GE Healthcare). Therefore, rhuSeprase was immobilized onto a CM5 chip via NHS/EDC mediated coupling as described by manufacturer at 10 μl/min for 420 sec. […] Kd values were calculated using the provided software.
(§2) As a next step a more detailed analysis of binding kinetic was performed using surface plasmon resonance technology (SPR). Therefore, recombinant human Seprase was immobilized on a CMS chip (GE Healthcare) with an amino reactive surface. […] Association and dissociation data was fitted and corresponding dissociation constant and kinetic values (Kon, Koff and Kd) was calculated using the provided software of the system (FIGS. 4A and B).

For assay [2], the target named is T1, recombinant soluble human Seprase …. The assay is described as follows: SPR (Biacore T100), recombinant human Seprase immobilized, 37-3000 nM MC-FA-010; Seprase on the chip; monovalent MC-FA-010, 37-3000 nM, Biacore T100. As to the method:
as §1, §2

Assay [3] shares this target. In words: SPR (Biacore T-100), rhuSeprase immobilized on CM5, multi cycle kinetics, 1:1 fit. As to the method:
(§3) RhuSeprase (20 μg/ml in PBS, 5% mannitol, 5% trehalose) was immobilized on an amino reactive Series S Sensor Chip CM5 (GE Healthcare). For binding analysis of monomeric Microbodies rhuSeprase was loaded to a maximum of 7500 RU, for oligomeric Microbodies to a maximum of 700 RU. Monomeric Microbodies were measured using a multi cycle kinetic method in a concentration range of 3.125 to 1000 nM based on expected dissociation constant. Association step was measured over a time period of 60-90 seconds, dissociation over 420 seconds. Trimeric Mircobodies were measured using a single cycle kinetics method in a concentration range of 0.3125 to 5 nM (association for 90 seconds, dissociation 420 seconds). Binding kinetics and steady state analysis were calculated using a 1:1 binding model (Biacore T-100 Evaluation Software, GE Healthcare).
(§4) The binding kinetics of monomeric and trimeric Seprase-binding Microbodies was determined using surface plasmon resonance spectroscopy on a Biacore T-100 system.

Assay [4] has the same target. In words: competition ELISA on coated rhuSeprase: free MC-FA-010 (0.64 to 3167 nM) against 3 nM Trx-MC-FA-010, detected with anti-S-Tag-HRP, OD 450 nm. As to the method:
(§5) For protein based ELISA analysis 5 μg of the respective recombinant protein (rhuSeprase; streptavidin: Sigma; DPP-IV: R&D Systems, BSA: Eurobio) were immobilized per well of a MaxiSorp™ plate (Nunc) by overnight incubation in coating buffer at 4° C. After washing thrice with 300 μl PBS-T/well on a Hydrospeed plate washer (Tecan) the wells were blocked with 1×Casein solution (Sigma, diluted in PBS) for 2 h at RT. Subsequently, the wells were washed as indicated above. 100 μl of the respective Trx-miniprotein fusion diluted in PBS-T was then added and incubated for 1 h at 4° C. […] For competition ELISAs a fixed concentration of 3 nM Trx-miniprotein fusion was mixed with varying concentration (0.64-3167 nM) of solitary miniprotein before incubation. Binding of the Trx-fusion was detected after a PBS-T washing procedure using HRP coupled anti S-tag antibody as described above. Apparent Kd was calculated using Sigmaplot 10 and an one site saturation binding model for fitting of the data.
Detection of bound miniprotein was achieved via anti S-Tag-HRP conjugated antibody (S-tag is provided by thioredoxin fusion expression system, FIG. 3A). EC₅₀ values were calculated using the one-site-saturation binding model in Sigma plot 10.

Assay [5] has the same target. The assay is described as follows: SPR (Biacore T-100), rhuSeprase immobilized on CM5, steady state analysis, 1:1 fit. As to the method: as §3, §4
For assay [6] the target is unchanged. The assay is described as follows: SPR (Biacore T-100). As to the method:
as §3, §4

The target of assay [7] is T2, human Seprase, full length, on cells (human, UniProt Q12884 1-760).
T2 construct: whole, on cells; also called CHO-K1-Seprase; CHO-K1-huSeprase
T2 sequence (looked up): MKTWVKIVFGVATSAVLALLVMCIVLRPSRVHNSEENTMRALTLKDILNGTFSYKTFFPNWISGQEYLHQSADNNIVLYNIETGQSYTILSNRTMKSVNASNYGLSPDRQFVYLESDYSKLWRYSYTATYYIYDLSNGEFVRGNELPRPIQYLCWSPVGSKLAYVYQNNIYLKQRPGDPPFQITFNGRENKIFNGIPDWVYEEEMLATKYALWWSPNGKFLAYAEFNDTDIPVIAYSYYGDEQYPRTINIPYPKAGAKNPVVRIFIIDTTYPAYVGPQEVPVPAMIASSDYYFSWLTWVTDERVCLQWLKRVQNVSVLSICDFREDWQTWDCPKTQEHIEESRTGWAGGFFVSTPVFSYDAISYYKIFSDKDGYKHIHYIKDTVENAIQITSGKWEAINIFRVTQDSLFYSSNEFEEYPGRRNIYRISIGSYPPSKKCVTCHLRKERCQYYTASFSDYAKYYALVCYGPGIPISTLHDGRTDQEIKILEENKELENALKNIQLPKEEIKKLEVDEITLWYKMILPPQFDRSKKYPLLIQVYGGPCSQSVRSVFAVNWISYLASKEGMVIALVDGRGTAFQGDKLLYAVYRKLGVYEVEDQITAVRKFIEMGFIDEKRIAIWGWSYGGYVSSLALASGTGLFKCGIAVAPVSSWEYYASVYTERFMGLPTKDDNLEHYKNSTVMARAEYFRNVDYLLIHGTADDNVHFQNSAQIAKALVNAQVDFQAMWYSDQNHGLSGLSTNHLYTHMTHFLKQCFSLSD
In words: FACS-based competition on CHO-K1-huSeprase cells, competitor Trx-MC-FA-012 detected with anti-H6-PE.

The target in assay [8] is T1, recombinant soluble human Seprase …. The assay is described as follows: SPR (Biacore T-100), rhuSeprase immobilized on CM5, single cycle kinetics, 1:1 fit. As to the method: as §3, §4
Assay [9] shares this target. In words: direct ELISA on coated rhuSeprase; binding relative to the parental Trx-MC-FA-010. As to the method: as §5
For assay [10] the target is unchanged. The assay is described as follows: direct ELISA on coated rhuSeprase, Trx fusion detected with anti-S-tag-HRP; apparent KD from one site saturation fit; Error 3,63; R2 0,9974. As to the method:
as §5

Assay [11] shares this target. The assay is described as follows: direct ELISA on coated rhuSeprase, Trx fusion detected with anti-S-tag-HRP; apparent KD from one site saturation fit; Error 7,6; R2 0,9962. As to the method:
as §5

Assay [12] has the same target. In words: direct ELISA on coated rhuSeprase, Trx fusion detected with anti-S-tag-HRP; apparent KD from one site saturation fit; Error 11,54; R2 0,9969. As to the method: as §5
The target is the same in assay [13]. The assay is described as follows: direct ELISA on coated rhuSeprase, Trx fusion detected with anti-S-tag-HRP; apparent KD from one site saturation fit; Error 64,43; R2 0,9863. As to the method:
as §5

The text below walks through data of patent US20180037632A1 (BIONTECH, published 2018).

Residue numbers refer to the chain shown, from its start. In names and notes the source's numbering stands. Positions of bridges follow the written chain, without caps; N, C: chain ends. No end group written: not given here.

B1: MC-FA-010 (designed binder)
chain: GKCPYSNWTPGRGPDCRRDSDCPGRCICRGNGYCG
modifications: disulfide (positions not given here)
notes: also called soluble monovalent MC-FA-010; solitary MC-FA-010 miniprotein
For the molecule B1, the Kd is 562 nM in assay [1], ~560 nM in [2], 149 nM in [3] and 106 nM in [5]. Moreover, the off-rate (koff) in [1] is 0.151 s⁻¹; in [3], 0.201 s⁻¹. Further, the kon in assay [1] was 268000 M⁻¹ s⁻¹; in [3], 1.53e+06 M⁻¹ s⁻¹. The IC50 in [4] was ~20 nM.

B2: DOTA-(MC-FA-012)3 (designed binder)
chain 1: B1 chain with K2A
chain 2: B1 chain with K2A
chain 3: B1 chain with K2A
modifications: each of chains 1-3: N-terminal aminooxy group oxime-ligated to an oxidised serine of the anchor; three disulfides (cystine knot) per chain; anchor carries an N-terminal DOTA chelator
notes: Purchased from Pepscan; about 13000 Da; also called DOTA conjugated trimerized MC-FA-012; MC-FA-012 trimer; not shown: the anchor scaffold (N-terminal DOTA, three Lys-Ser units separated by GSGS linkers)
In the case of B2, in assay [6], the “times slower offrate compared to MC-FA-012” value is ~530 fold. The molecule further registered an IC50 in assay [7] of 43.3 nM. Also, the Kd in [5] worked out at 0.249 nM. Also, in assay [8], the Kd amounted to 0.0124 nM and the kon came to 2.11e+07 M⁻¹ s⁻¹.

B3: Trx-MC-FA-018 (designed binder)
chain: B1 chain with T9A
modifications: disulfide 16-28, 22-34, 3-26; also: N-terminal Trx-His6-S-tag fusion carrier, not in chain
notes: the position follows from the order of the rows; also called alanine scan variant T9A of MC-FA-010, Trx fusion; not shown: thioredoxin-A, His6 tag, S-tag and linkers of the pET-32-LibEx fusion (N-terminal carrier)
Consider B3, for which, in assay [9], the “Relative Bindung im Vergleich zu Trx-MC-FA-010 [%]” value came out at 29.9%. Besides, the Kd in assay [10] was found to be 50.6 nM.

B4: Trx-MC-FA-019 (designed binder)
chain: B1 chain with P10A
modifications: disulfide 16-28, 22-34, 3-26; also: N-terminal Trx-His6-S-tag fusion carrier, not in chain
notes: the position follows from the order of the rows; also called alanine scan variant P10A of MC-FA-010, Trx fusion; not shown: thioredoxin-A, His6 tag, S-tag and linkers of the pET-32-LibEx fusion (N-terminal carrier)
With B4, the Kd in assay [11] amounted to 78.7 nM. The “Relative Bindung im Vergleich zu Trx-MC-FA-010 [%]” value in [9] came to 19.3%.

B5: Trx-MC-FA-016 (designed binder)
chain: B1 chain with N7A
modifications: disulfide (positions not given here); also: N-terminal thioredoxin-A, His6, S-tag and linker carrier, letters not given here
notes: the position follows from the order of the rows; also called alanine scan variant N7A of MC-FA-010, Trx fusion; not shown: thioredoxin-A, His6 tag, S-tag and linkers of the pET-32-LibEx fusion (N-terminal carrier)
With B5, the “Relative Bindung im Vergleich zu Trx-MC-FA-010 [%]” value in assay [9] amounted to 13.4%. Besides, the Kd in [12] was 113 nM.

B6: Trx-MC-FA-0112 (designed binder)
chain: B1 chain with G13A
modifications: disulfide 16-28, 22-34, 3-26; also: N-terminal Trx-His6-S-tag fusion carrier, not in chain
notes: the position follows from the order of the rows; also called alanine scan variant G13A of MC-FA-010, Trx fusion; not shown: Thioredoxin-A, His-tag (H6), S-tag and linker of the pET-32-LibEx fusion, N-terminal of the miniprotein
For B6, in assay [13], the Kd came to 217 nM. For the same molecule, in assay [9], the “Relative Bindung im Vergleich zu Trx-MC-FA-010 [%]” value came to 6.98%.
